Data published in the supplement of paper PMC9732359.
± gives the uncertainty stated by the source.

assay: protein stability index of a GFP-peptide fusion (yeast GPS) (PSI 1-4); higher = more stable; sorted into four equal gates, so the index is relative within each strain; details: pdr5∆
Method in brief: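 Plasmids in a pooled yeast library fused tiled 17-residue yeast protein peptides downstream of GFP and also expressed Cherry. Mid-log cultures grown without leucine were sorted into four equal gates by GFP/Cherry fluorescence ratio. Each gate's plasmids were PCR-amplified and Illumina-sequenced, and reads were matched to strains by barcodes. The protein stability index is derived by multiplying each gate's read frequency by its gate number and summing the results.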

FKSSVEMGKTDKSTKTA [YOR098C/NUP1] and FKSYATRTVITDWDPQF [SMC2] are within error of each other in protein stability index: 3.24 ± 0.099 for the first, 3.06 ± 0.083 for the second.

FKVYEPLLLVGLDKFSN [RPS16A] and FLEKEKQLTLLRSKLFQ [SMC4] are within error of each other in protein stability index: 1.96 ± 0.055 for the first, 1.99 ± 0.067 for the second.

Going from FLFQNINFERIDEVFSW [GRR1] to FLKHNGEEDAVDLLLEI [RPN1], the protein stability index rises from 2.36 ± 0.071 to 3.16 ± 0.12.

Going from FLLSAMTMASKSLEVVN [NSL1] to FLLTQSKVSIEQRKEAA [RPN7], the protein stability index rises from 1.45 ± 0.069 to 2.53 ± 0.15.

Going from FLQELLKKVQQQQQAAA [SWI1] to FLQRIDFQIDGNIFELL [RRI2], the protein stability index rises from 2.6 ± 0.088 to 2.92 ± 0.071.

First: FLQSVDITGIRDVSDDV [GRR1]
Second: FLRTQFLKLYVLVKWTR [RGR1]
The protein stability index of the first is higher: 2.12 ± 0.045 for the first, 1.95 ± 0.065 for the second.

First: FLTNYNVRMDTMANILY [RPB2]
Second: FLVEYEGQENNYNSTSR [SIR4]
The protein stability index of the first is higher: 3.02 ± 0.098 for the first, 2.76 ± 0.08 for the second.

Going from FMDEIDSIGSTRVEGSG [RPT6] to FMEIVLEYNVALNDVYL [YML031W/NDC1], the protein stability index falls from 2.56 ± 0.12 to 2.3 ± 0.084.

Going from FMLRKQDPKTLVALLSR [SSN2] to FMNDAAADVSAVDAKQL [YML103C/NUP188], the protein stability index rises from 1.84 ± 0.041 to 2.54 ± 0.099.

First: FNFGGKSDTVTSASQPF [YOR098C/NUP1]
Second: FNGIENQSAYEWNGKSF [ISW2]
The protein stability index of the first is lower: 2.03 ± 0.056 for the first, 3.25 ± 0.2 for the second.

Going from FNLNLPPSSFGRSHTRN [REC8] to FNQEGDYNFKYGIPLEF [PRP8], the protein stability index rises from 2.51 ± 0.1 to 3.11 ± 0.077.

First: FNRDNKVSPAAAAKKAL [RPS26B]
Second: FNSVKSFDEWFNTPFAN [SNF2]
The protein stability index of the first is lower: 2.5 ± 0.21 for the first, 3.14 ± 0.082 for the second.

First: FNVHEVPRAALEERFDP [YMR129W/POM152]
Second: FPGDSFPVDPTTPVKLG [RRP40]
The protein stability index of the first is higher: 3.15 ± 0.078 for the first, 2.58 ± 0.053 for the second.

First: FPGKPVDVQAPTDDKTL [YOR098C/NUP1]
Second: FPNGFKNFENGPKKNVF [RPC34]
The protein stability index of the first is lower: 3.02 ± 0.1 for the first, 3.27 ± 0.082 for the second.

Going from FPPGVIGIDEGSDEAYV [RPC40] to FPQTAMLRRHAAPPSTN [DIS3], the protein stability index falls from 3.41 ± 0.085 to 1.93 ± 0.12.

Going from FPRNGKAPEAEQVLSAA [RPL13A] to FQAQQAQQAQQAQQAQQ [SNF2], the protein stability index rises from 2.76 ± 0.093 to 3 ± 0.046.

Compared with FQIDNDNIRYATALQTC [SMC2], FQKAQGSYAGHRKHIAV [YCG1] is higher in protein stability index: 1.78 ± 0.047 for the first, 2.11 ± 0.28 for the second.

FQNLELETEQLSSELDS [SMC2] and FQSVQLNINNPNFLIMQ [SMC2] are within error of each other in protein stability index: 2.58 ± 0.11 for the first, 2.62 ± 0.071 for the second.

Compared with FRHFIGIKAKHDKNIQK [ISW2], FRLIDTGALINNLEPRQ [RPN11] is higher in protein stability index: 2.6 ± 0.085 for the first, 3.18 ± 0.24 for the second.

Compared with FRPIEIFTDFLPSSNGS [RRP42], FSAPIRPDIVHTVFTSV [RPL4A] is lower in protein stability index: 3.07 ± 0.08 for the first, 2.07 ± 0.057 for the second.

Compared with FSEVYEYNRLKVQDAIE [LIN1], FSFGGTQTGQNTGPSTG [YGL172W/NUP49] is higher in protein stability index: 2.17 ± 0.055 for the first, 3.34 ± 0.17 for the second.

Compared with FSFGKSDAAKEPPGSNT [YOR098C/NUP1], FSMGHIRSSSVSLVAEA [MED4] is lower in protein stability index: 3.58 ± 0.16 for the first, 1.67 ± 0.057 for the second.

FSPDGHIFQVEYALEAV [PRE6] and FSQTVADNNDLQESINH [ECM29] are within error of each other in protein stability index: 3.07 ± 0.054 for the first, 3.08 ± 0.049 for the second.

First: FSRHAQQQTSTFNSKPV [SIR4]
Second: FSSSVSLSYMAFPNASK [RRP40]
The protein stability index of the first is higher: 2.82 ± 0.058 for the first, 1.76 ± 0.074 for the second.

Compared with FSYFFESFESYHNLTTH [RPN6], FTGNNSTPGGGSVFNMN [YOR098C/NUP1] is higher in protein stability index: 2.65 ± 0.082 for the first, 3.58 ± 0.19 for the second.

Going from FTICLNDRNPRLNENKK [CSN12] to FTLLDFKKQMQTIMKMG [SRP54], the protein stability index falls from 3.21 ± 0.056 to 2.67 ± 0.15.

Compared with FTNPSVDIQIINQYQLL [SWI1], FTYNKFLLNQNKQLSQS [YIL149C/MLP2] is higher in protein stability index: 1.66 ± 0.07 for the first, 2.96 ± 0.06 for the second.

Going from FVHSVKKFLRVRIFTKI [SRB4] to FVIRREVTKGEKTYTKA [RPS6A], the protein stability index rises from 2.07 ± 0.072 to 3.13 ± 0.14.

Going from FVNGVATSFSRKKARTF [FAS2] to FVPVPALSAYHKVQTKL [RPS7B], the protein stability index rises from 1.76 ± 0.11 to 2.52 ± 0.046.

FVQLCEMGYLIQISKLH [RPC82] and FVSRIPIMFQDFDDSTA [IRR1] are within error of each other in protein stability index: 1.95 ± 0.064 for the first, 1.96 ± 0.042 for the second.

FVTQFRHLRRTGKVSEF [RET1] and FYKLNMPDEFNTLYTAI [SRP72] are within error of each other in protein stability index: 2.5 ± 0.17 for the first, 2.64 ± 0.053 for the second.

Compared with FYQGKTGVVYNVTKSSV [RPL21A], FYSTNSQYFKFKNDFNS [RPN9] is lower in protein stability index: 2.58 ± 0.079 for the first, 2.11 ± 0.054 for the second.

GAKPAGSTGGLGASFGQ [YGL172W/NUP49] and GASINSMKANTSTNPNG [ARP7] are within error of each other in protein stability index: 3.41 ± 0.24 for the first, 3.19 ± 0.089 for the second.

GASVISLTKDKSIRKDT [SIR4] and GCDENDSTVNKSITLKG [YDL088C/ASM4] are within error of each other in protein stability index: 3.23 ± 0.055 for the first, 3.27 ± 0.068 for the second.

GCEANIHSLVKQRLDLA [YIL149C/MLP2] and GDNEYITLRTSGELLQG [MCD1] are within error of each other in protein stability index: 3.19 ± 0.11 for the first, 3.11 ± 0.16 for the second.

Going from GDTVQFAEYIQANIQLY [PRE1] to GDYNNTVYSSEQYIQEL [SMC3], the protein stability index rises from 2.31 ± 0.063 to 3.2 ± 0.11.

Compared with GDYVAYQLNGVAPFMIK [YMR129W/POM152], GEDFMEVDYEDKDNPVD [SRB4] is higher in protein stability index: 1.49 ± 0.08 for the first, 2.96 ± 0.24 for the second.

Going from GEENRVRFIGDSVAAIG [QCR2] to GEINKICMESLFLEPSW [PCI8], the protein stability index falls from 2.76 ± 0.18 to 1.89 ± 0.083.

Compared with GEKKVGSNGELFGGRHY [SWP82], GELRDYIEDFLLVIGGN [YJR042W/NUP85] is lower in protein stability index: 3.26 ± 0.13 for the first, 2.38 ± 0.065 for the second.

Going from GEMERDCMIAHGAASFL [RPB2] to GENVFLKRISDGLSFGK [SIR3], the protein stability index rises from 3.08 ± 0.085 to 3.39 ± 0.17.

First: GEVLGITRFGLSKMRDS [RPO31]
Second: GFIENCNGSALVEARSL [MTR3]
The protein stability index of the first is higher: 3.26 ± 0.11 for the first, 2.83 ± 0.085 for the second.

First: GFIFTSMILEAISTDKI [RRI2]
Second: GGCDYIFSLLTGYPDEP [CYT1]
The protein stability index of the first is lower: 1.27 ± 0.072 for the first, 3.39 ± 0.15 for the second.

First: GGFEDVEEYTWSSLLNE [RPB2]
Second: GGFEYFLQPLLLVGLIK [NUT1]
The protein stability index of the first is higher: 3.19 ± 0.17 for the first, 1.52 ± 0.063 for the second.

GGLGLNLQTADTVIIFD [SNF2] and GGNGPEDFQQHEQIRRK [RPO26] are within error of each other in protein stability index: 3.22 ± 0.1 for the first, 3.39 ± 0.072 for the second.

First: GGVGSMGAINNNIPSLT [SNF6]
Second: GHTLINNYKDLLAVAIA [RPP0]
The protein stability index of the first is higher: 3.34 ± 0.09 for the first, 1.61 ± 0.24 for the second.

First: GIFIKILNDSLIYHLKD [IRR1]
Second: GIGGDHAKFSPVSTASY [RPC40]
The protein stability index of the first is lower: 1.31 ± 0.048 for the first, 2.9 ± 0.12 for the second.

Going from GIIVAVDSRATAGNWVA [PRE2] to GIKVSLLGIFDDIFIPQ [RPC25], the protein stability index rises from 1.46 ± 0.079 to 1.73 ± 0.092.

First: GILGNKAQAKMDKRAKN [RPL8A]
Second: GILLLDSLIQLANRSKE [YJL039C/NUP192]
The protein stability index of the first is higher: 3.51 ± 0.14 for the first, 1.74 ± 0.059 for the second.

GINKNEEYRKQLDKKNE [SMC1] and GIRVQDSVILASSKAVT [PRE1] are within error of each other in protein stability index: 2.62 ± 0.069 for the first, 2.73 ± 0.076 for the second.

Compared with GITAVHVKIRATGGTRT [RPS14B], GIVETNRPDNKNAQYHL [RPN7] is higher in protein stability index: 1.61 ± 0.041 for the first, 3.21 ± 0.13 for the second.

Compared with GKALVHHYEECAERVKI [QCR6], GKETIARVTGGMKVKAD [RPS14B] is lower in protein stability index: 3.28 ± 0.1 for the first, 1.24 ± 0.096 for the second.
